From patent publication US7589207B2, “Cyclohexyl compounds as CCR5 antagonists” (SmithKline Beecham Corporation, priority 2002, dated 2009)

Target: T1, human CCR5 chemokine receptor (Homo sapiens, UniProt P51681)
T1 construct: host or cells: Chinese Hamster Ovary (CHO) cells; membranes prepared from the cell pellet
Test: CC-Chemokine Receptor-5 binding by Scintillation Proximity Assay (CCR5 SPA), displacement of 125I-MIP1α
Settings: standard compound, 14-point concentration-response curve in triplicate, starting concentration 1 μM
Method: CC-Chemokine Receptor-5 Binding by Scintillation Proximity Assay (CCR5 SPA) Scintillation Proximity Assay for the Human CC-Chemokine Receptor, CCR-5
This protocol describes a high-throughput screen using SPA binding to identify compounds that inhibit binding of ^125I-MIP1α to the human CCR5 chemokine receptor.
Human CCR5 receptors were expressed in Chinese Hamster Ovary (CHO) cells, registration # 12025. Cells were grown in suspension and a 50 to 80 ml CCR5 cell pellet was prepared. […]
The saturation curve binding experiment is performed by adding varying amounts of [^125I]MIP1α (0-8.5 nM to membranes and beads in concentrations chosen from the optimal protein/bead ratio. The data is analyzed using a non-linear curve-fitting program. The Kd and Bmax are derived from the curve. […]

T1 sequence (P51681 whole entry): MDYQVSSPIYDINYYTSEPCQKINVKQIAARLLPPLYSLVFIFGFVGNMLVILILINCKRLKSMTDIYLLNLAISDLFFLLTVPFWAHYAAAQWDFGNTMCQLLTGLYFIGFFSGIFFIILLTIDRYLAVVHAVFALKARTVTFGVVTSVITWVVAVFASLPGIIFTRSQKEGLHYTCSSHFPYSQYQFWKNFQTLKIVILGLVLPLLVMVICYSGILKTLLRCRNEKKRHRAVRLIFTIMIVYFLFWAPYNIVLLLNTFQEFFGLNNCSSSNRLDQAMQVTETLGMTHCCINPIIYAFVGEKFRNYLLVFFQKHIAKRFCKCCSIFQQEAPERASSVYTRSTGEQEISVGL

average historical pKi: 7.6
Substance: MIP1α: natural chemokine ligand of CCR5, used as the standard compound in the CCR5 SPA binding assay
